For two molecules, Kd results are on record in patent US20260201015A1 (published 2026).

A value given as a limit tells only on which side of the number the result lay.

One assay deals with glucagon (GCG) (UniProt P01275 53-81, fluorescently labeled (FAM or TAMRA) in FP assays, site not stated; biotinylated in yeast display). As to the kind of experiment: FP.
The next assay addresses T1, secretin (SCT) (UniProt P09683 28-54, fluorescently labeled (FAM or TAMRA) in FP assays, site not stated).
T1 peptide: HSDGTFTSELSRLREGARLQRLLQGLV
Kind of assay: FP.

Assay [1] has as its target T2, parathyroid hormone (PTH) peptide (UniProt P01270 32-65, TAMRA label in FP assays (PTH-TAMRA), site not stated; biotinylated in yeast display).
T2 peptide: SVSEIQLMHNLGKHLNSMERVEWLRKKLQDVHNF
As to the kind of experiment: Split NanoBiT titration.

Sequence of glucagon (GCG) (P01275 53-81): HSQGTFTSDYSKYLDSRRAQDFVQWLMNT

B1: GCG_C09 (RF Diffusion/Partial diffusion), partially diffused GCG binder, SEQ ID NO: 8 (designed binder)
chain: SMEKLAEIMQEIIEAYQEVKDAFFKFIKAVHEGAPEEELKKYLEKMKEALEKMKELLERLEKEAKKVIEENKDKKLELKVLLMLRLAYLLLKVSIELTKIAAEKLGDKELVEELEKESKEVEKKIKELEERIKKLLEEVDDEELKEAYKEVEEMEKEAEKFLEKMRKV
With B1, the Kd – broadly, the constant that tells how readily two partners part at equilibrium – in the assay with glucagon (GCG) was less than 0.5 nM; in the assay with secretin (SCT), 1.42 nM.

B2: parametrically designed PTH binder (SEQ ID NO: 1) (designed binder)
chain: SQELIEELIKLAKELAEIKDEEERRKIKRELERLAEELKEAPASSLLRALALLVIALALIQAAESEEERERARELLERLEELLRELEKQITDERFKEILRELEELAKELKKQL
B2 registered a Kd in assay [1] of more than 1000 nM.
